B1: Proliferating cell nuclear antigen (Saccharomyces cerevisiae), P15873 (parent)
chain: MLEAKFEEASLFKRIIDGFKDCVQLVNFQCKEDGIIAQAVDDSRVLLVSLEIGVEAFQEYRCDHPVTLGMDLTSLSKILRCGNNTDTLTLIADNTPDSIILLFEDTKKDRIAEYSLKLMDIDADFLKIEELQYDSTLSLPSSEFSKIVRDLSQLSDSINIMITKETIKFVADGDIGSGSVIIKPFVDMEHPETSIKLEMDQPVDLTFGAKYLLDIIKGSSLSDRVGIRLSSEAPALFQFDLKSGFLQFFLAPKFNDEE
B2: Proliferating cell nuclear antigen (Saccharomyces cerevisiae), P15873 (parent)
chain: B1 chain
partner: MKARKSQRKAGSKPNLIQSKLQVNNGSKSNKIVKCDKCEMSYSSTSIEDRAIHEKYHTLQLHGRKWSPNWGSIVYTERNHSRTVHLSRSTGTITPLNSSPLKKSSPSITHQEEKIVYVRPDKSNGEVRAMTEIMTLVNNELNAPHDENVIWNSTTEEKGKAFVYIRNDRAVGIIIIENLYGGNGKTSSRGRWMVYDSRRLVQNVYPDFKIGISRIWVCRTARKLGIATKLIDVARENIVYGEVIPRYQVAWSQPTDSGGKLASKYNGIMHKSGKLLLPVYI
B3: ATP-dependent DNA helicase SRS2 (Saccharomyces cerevisiae), P12954 (parent)
chain: MSSNNDLWLHLVSQLNTQQRAAALFDYTRGLQVIAGPGTGKTKVLTSRVAYLILHHHIHPRDIIVTTFTNKAANEMKERLQEMLRGAGVNISELLIGTFHSICLKILYRFGHLVDLQKDWRIIDEKEIDVILDDMIEKVPDQIRDYASSITRKVNLCMPSKNGDEWTIHPKLIKKQISKLKSNAILPEEYILDSNHDAALGYFYQIYQSELSKKNTLDFDDLLMYTFRLLTRVRVLSNIKHVLVDEFQDTNGIQLDLMFLFAKGNHHLSRGMTIVGDPDQSIYAFRNALAHNFLEMGRKCPIEYSTIILVENYRSSQKILNTSEILITQQNKGRQNRAPLRAQFDLDFPPVYMNFPAYFLEAPSLVRELLYLKALPNLFTFNDFAILVRQRRQIKRIESALIEHRIPYKIIRGHSFWDSKETRAMLNLLKLIFSPNDKHAILASLLYPARGLGPATGEKIKNALDTLATDVSCFQILKDISSKKIMLDIPTKGRSVIADFISMIENCQLLLQSTLLGGLSDLFDKLYELSGLKYEYLYKDGKKKNDQLEKSEPNLLNARHKNIELLKNYFLALLSKSESSDKEKNEAIKAATDEAEPIENKVITPKEYLRNFFNSLSLHSDAAEEEESESNKDAKIKREKNGFVTISTIHGAKGLEWPVVFIPGCEEGIIPCVFNDDKKDESEEDEEEDQENSKKDASPKKTRVLSVEDSIDEERRMFFVAQTRAKYLLYLSNTVTVEDVDRPRIASRFLTTDLIKAMSDSQKLFESTNSIKKLYRILNKKPPAEDDKLFSLDQLRKDYNQFIENRRERMIWQGIQMNDVYGIQLSRNKLLGSVSDFTSAADQLRLETQNSIFPQKKLIEKSRPSKINGNYAPKSRVKSPEKRYAPETTSFHSPTKKKVYAPQYVSTTNVPSRQEFHSSTGKNIPFLRREDRSITDISPRSSTRSLKGASPNKTSHMSDDLMRPSPTRKDKVTRNIHFATAGTFRIETQSNVDELHPPEYSNKSGQSLTSSEFSGFSSACSNSDQPTNLIEDINNELDLSDEELLNDISIERRRELLGSKKTKKIKPKTRNRKSKRGDKVKVEEVIDLKSEFEEDDSRNTTAAELLHNPDDTTVDNRPIISNAKFLADAAMKKTQKFSKKVKNEPASSQMDIFSQLSRAKKKSKLNNGEIIVID

Variants of: B1
Conditions: with srs2_yeast SRS2, P12954

Effect of a mutation on the interaction, decreasing interaction:
F125A;L126A;K127A;I128A

Variants of: B2
Conditions: with eco1_yeast ECO1, P43605

Effect of a mutation on the interaction, decreasing interaction:
F125A;L126A;K127A;I128A

Variants of: B3
Conditions: with pcna_yeast POL30, P15873

Effect of a mutation on the interaction, decreasing interaction:
Q1155E
I1152A
D1151A
Q1149E;I1152A
Q1149E
F1153A
L1156A
I1152A;L1156A

Variants of: B3
Conditions: with smt3_yeast SMT3, Q12306
Sequence of smt3_yeast SMT3, Q12306 (Q12306 whole entry): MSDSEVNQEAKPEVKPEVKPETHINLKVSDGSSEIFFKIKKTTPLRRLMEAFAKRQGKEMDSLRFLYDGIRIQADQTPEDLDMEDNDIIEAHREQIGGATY

Effect of a mutation on the interaction, decreasing interaction:
I1152A
Q1149E;I1152A
L1156A
I1152A;L1156A
